The target of assay [1] is T1, TCRab on primary human T cells (human, UniProt P01848 1-140; P01850 1-176).
T1 construct: whole, on cells; T cells isolated from buffy coats; also called Primary hu T cells; human TCR
T1 TCR alpha (looked up): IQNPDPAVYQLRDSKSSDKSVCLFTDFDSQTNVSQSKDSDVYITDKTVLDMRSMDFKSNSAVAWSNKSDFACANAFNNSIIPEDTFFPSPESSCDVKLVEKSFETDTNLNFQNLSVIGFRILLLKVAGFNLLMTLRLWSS
T1 TCR beta (looked up): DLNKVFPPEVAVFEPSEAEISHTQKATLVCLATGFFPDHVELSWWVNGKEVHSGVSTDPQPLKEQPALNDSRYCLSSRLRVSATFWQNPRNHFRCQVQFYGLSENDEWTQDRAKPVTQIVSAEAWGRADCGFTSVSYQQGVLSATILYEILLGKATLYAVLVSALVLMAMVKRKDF
Description: competition flow cytometry on primary human T cells, competitor T017000624 at EC30 (2E-08 M). Here is the method:
T cells (human T cells obtained as described in Example 3 and cyno T cells purchased from LPT laboratory, Germany) were thawed and counted on the day of the assay and diluted to a concentration of 1E+06 cells/mL, before adding 75 μL to the wells of a V-bottom 96-well plate (Greiner, cat no 651180). Cells were washed once with cold FACS buffer, before adding 25 μL Nb and 25 μL competitor to the wells. […] Cells were resuspended and plates were incubated at 4° C. for 90 minutes, after which plates were washed twice in cold FACS buffer. Cells were resuspended in 50 μl 1/1000 diluted Monoclonal ANTI-FLAG® M2 (Sigma Aldrich, cat no F1804) in FACS buffer and incubated at 4° C. for 30 minutes. Plates were washed twice in cold FACS buffer. […] Plates were washed twice in cold FACS buffer. Cells were resuspended in 55 μL 1/1000 diluted Propidium Iodide (Sigma-Aldrich, cat no P4170) in FACS buffer before acquiring data on the MACSQuant X (Miltenyi biotec).
In general terms: Flow cytometry measures light scatter and fluorescence of single cells or particles in a stream.

Assay [2] deals with T2, human GPC3 on tumor cell lines (HepG2, Huh-7, NCI-H661, MKN-45, NCI-H23, BxPC-3, NCI-H292) (human, UniProt P51654 25-554). Briefly: cell-based or functional assay.
Assay [3] concerns the target T3, human GPC3 expressed on CHO Flp-In cells (human, UniProt P51654 25-554).
T3 construct: On cells; Q25-R358, S359-H580; also called hGPC3 CHO; CHO huGPC3
Description: flow cytometry on cells expressing GPC3; upper end tied by Table 21 to CHO human GPC3.

The target of assay [4] is T2, human GPC3 on tumor cell lines (HepG2, …). Briefly: flow cytometry on Huh-7 cells.
Assay [5] deals with T4, human Glypican-6 (R&D systems, cat no 2845-GP) (human, UniProt Q9Y625 24-529, limits assumed).
T4 construct: Bought; also called GPC6
T4 sequence (looked up): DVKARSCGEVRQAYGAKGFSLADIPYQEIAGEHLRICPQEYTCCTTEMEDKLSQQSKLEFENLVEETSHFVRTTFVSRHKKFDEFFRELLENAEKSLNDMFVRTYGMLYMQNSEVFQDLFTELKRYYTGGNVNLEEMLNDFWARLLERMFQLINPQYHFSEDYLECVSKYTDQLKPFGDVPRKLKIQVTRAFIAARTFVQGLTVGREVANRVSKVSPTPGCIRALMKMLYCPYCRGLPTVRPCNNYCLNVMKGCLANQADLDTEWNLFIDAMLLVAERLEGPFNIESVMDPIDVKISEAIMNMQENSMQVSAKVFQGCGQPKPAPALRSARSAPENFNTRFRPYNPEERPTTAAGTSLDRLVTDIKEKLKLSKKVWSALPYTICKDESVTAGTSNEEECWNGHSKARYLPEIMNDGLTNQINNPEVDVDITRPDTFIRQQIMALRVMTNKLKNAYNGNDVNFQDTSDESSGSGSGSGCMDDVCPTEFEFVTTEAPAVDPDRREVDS
Briefly: ELISA, Glypican-6 coated at 2 ug/mL. Here is the method:
Human GPC1 (R&D systems, cat no 4519-GP), human GPC2 (R&D systems, cat no 2304-GP), human GPC3 (R&D systems, cat no 2119-GP), human Glypican-5 (R&D systems, cat no 2607-G5) and human Glypican-6 (R&D systems, cat no 2845-GP) were directly coated overnight at 4° C. (2 μg/mL, 1×PBS buffer) on a 384-well HB SpectraPlate (PerkinElmer). The following day the plate was washed 6 times (AquaMax microplate washer, Molecular devices) and blocked with 1×PBS+1% Casein for 2 hours at room temperature. […] After 6 final wash steps the es(HS)TMB substrate (SDT) was added and the reaction stopped by addition of 1 M HCl after 10 minutes. The absorbance of the plate was measured at wavelengths 450 and 620 nm on the Clariostar instrument (BMG LABTECH) and the OD₄₅₀-OD₆₂₀ calculated and plotted for data analysis.
In general terms: ELISA stands for enzyme-linked immunosorbent assay.

The target in assay [6] is T5, cyno TCRab, in house produced (extracellular domains fused to a zipper peptide) (cynomolgus).
T5 construct: Numbering of the four differences is not explained; not shown: variable domains, if any; any residues beyond C131 of the beta chain
T5 alpha: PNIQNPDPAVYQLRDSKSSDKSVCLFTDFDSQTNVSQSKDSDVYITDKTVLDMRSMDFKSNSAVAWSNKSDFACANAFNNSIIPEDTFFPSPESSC
T5 beta: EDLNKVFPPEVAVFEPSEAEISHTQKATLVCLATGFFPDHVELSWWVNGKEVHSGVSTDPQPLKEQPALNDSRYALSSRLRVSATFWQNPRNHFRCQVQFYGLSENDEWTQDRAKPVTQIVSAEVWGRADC
Description: SPR ProteOn XPR36, TCRab immobilized by amine coupling, 1:1 model. How it is done:
Recombinant TCR proteins were immobilized on a GLC Sensor Chip (Biorad) via amine coupling, using EDC and NHS chemistry (running buffer: HBS-EP+, pH 7.4). Purified ISVDs were injected for 2 minutes (flow rate 45 μL/min) at different concentrations (between 0.2 nM and 200 nM) and dissociation was followed for 900 s. Regeneration was performed by injecting 3 M MgCl₂ for 3 minutes (flow rate 90 μL/min). Data was double referenced by subtracting a reference ligand lane and a blank buffer injection. Processed sensorgrams were analyzed based on the 1:1 interaction model (Langmuir binding model) using ProteOn Manager 3.1.0 (Version 3.1.0.6) software.

Assay [7] has as its target T6, cyno GPC3 expressed on CHO Flp-In cells (cynomolgus).
T6 construct: range 3-559; On cells; also called cyGPC3 CHO; CHO-cGPC3
Briefly: flow cytometry on CHO Flp-In cyno GPC3 cells.

B1: A022600424 (other)
chain: DVQLVESGGGVVQPGGSLRLSCVASGYVHKINFYGWYRQAPGKEREKVAHISIGDQTDYADSAKGRFTISRDESKNTVYLQMNSLRPEDTAAYYCRALSRIWPYDYWGQGTLVTVSSGGGGSEVQLVESGGGVVQPGGSLRLSCAASGFTFSSFAMTWVRRPPGKGLEWVATITNKGVTSYADSVKGRFTISRDNAKNTLYLQMNSLRPEDTALYICANARRTGPRAPTDIGSYRGQGTLVTVSSGGGGSGGGSEVQLVESGGGVVQPGGSLRLSCAASGSIFRSVFSSSTMEWYRQAPGKKRELVARIAPGEGTYYGALYADSVKGRFTISRDNAKNTVYLQMNSLRPEDTALYYCASGVAWGQGTLVTVSSGGGGSGGGSEVQLVESGGGVVQPGGSLRLSCAASGFTFRSFGMSWVRQAPGKGPEWVSSISGSGSDTLYADSVKGRFTISRDNSKNTLYLQMNSLRPEDTALYYCTIGGSLSRSSQGTLVTVSSA
notes: Trispecific tetravalent ISVD (VHH) T-cell engager: anti-TCR, two anti-GPC3 (biparatopic), anti-albumin; also called TCE01-5GS-A022600351-9GS-A022600314-9GS-ALB23002-A
With B1, in assay [1], the IC50 was found to be 170 nM. Further, the “IC50 (M), xCELLigence TDC assay on Huh-7, Primary cy T cells” value in assay [2] was 2.29e-10 M. Further, the “IC50 (M), xCELLigence TDC assay on Huh-7, Primary hu T cells” value in assay [2] is 7.59e-11 M. Also, the EC50 in assay [3] was 1 to 2 nM; in assay [4] it was 1.25 nM; in assay [7], 1.11 nM. Besides, the binding result in assay [5] is listed as “no binding”. Besides, binding in assay [6] was put at a Kd of 5.4 nM.

Broadly, the IC50 is the midpoint of a concentration-inhibition curve. The low end stands for greater potency in that assay, the high end for weaker potency in that assay. Usually EC50 stands for the concentration giving half of the maximal effect. A high value points to lower potency in that assay. What is called Kd is the concentration at which binding is half-saturated.

For the origin of these results see US20240343823A1 (Ablynx, published 2024).
